From patent US20260117204A1, “STABILIZER FOR URATE OXIDASE AND PEGYLATED CONJUGATE THEREOF, AND PHARMACEUTICAL USE OF STABILIZER” (Hangzhou Grand Biologic Pharmaceutical Inc., priority 2023, published 2026)

B1: S2: Homemade recombinant pig-baboon chimeric urate oxidase (SEQ ID NO: 1), not PEG modified (protein)
chain: TYKKNDEVEFVRTGYGKDMIKVLHIQRDGKYHSIKEVATTVQLTLSSKKDYLHGDNSDVIPTDTIKNTVNVLAKFKGIKSIETFAVTICEHFLSSFKHVIRAQVYVEEVPWKRFEKNGVKHVHAFIYTPTGTHFCEVEQIRNGPPVIHSGIKDLKVLKTTQSGFEGFIKDQFTTLPEVKDRCFATQVYCKWRYHQGRDVDFEATWDTVRSIVLQKFAGPYDKGEYSPSVQKTLYDIQVLTLGQVPEIEDMEISLPNIHYLNIDMSKMGLINKEEVLLPLDNPYGKITGTVKRKLSSRL
B2: urate oxidase from Micrococcus: Homemade recombinant urate oxidase from wild-type Micrococcus (SEQ ID NO: 9), not PEG modified (protein)
chain: MTNIILGKNQYGKAEVRLVKVTRNTCRHEIQDLNVTSQLRGDFEAAHTAGDNAHVVATDTQKNTVYAFARDGFATTEEFLLRLGKHFTEGFDWVTGGRWAAQQFFWDRINDHDHAFSRNKSEVRTAVLEISGSEQAIVAGIEGLTVLKSTGSEFHGFPRDKYTTLPETEDRILATDVSARWRYNTVEVDFDAVYADVRGLLLKAFAETHSLALQQTMYEMGRAVIETHPEIDEIKMSLPNKHHFLVDLSPFGQDNPNEVFYAADRPYGLIEATIQREGCRADHPIWSN
B3: S1: Commercially available unmodified urate oxidase from Aspergillus flavus (SEQ ID NO: 8) (protein)
chain: SAVKAARYGKDNVRVYKVHKDEKTGVQTVYEMTVCVLLEGEIETSYTKADNSVIVATDSIKNTIYITAKQNPVTPPELFGSILGTHFIEKYNHIHAAHVNIVCHRWTRMDIDGKPHPHSFIRDSEEKRNVQVDVVEGKGIDIKSSLSGLTVLKSTNSQFWGFLRDEYTTLKETWDRILSTDVDATWQWKNFSGLQEVRSHVPKFDATWATAREVTLKTFAEDNSASVQATMYKMAEQILARQQLIETVEYSLPNKHYFEIDLSWHKGLQNTGKNAEVFAPQSDPNGLIKCTVGRSSLKSKL

Experiments:
[1] = Stability effect of xanthine on urate oxidase from Micrococcus at 2° C. to 8° C.: SEC; format: physicochemical; conditions: for High molecular weight % / Low molecular weight % / Main peak area / Main peak ratio % / Total peak area: SEC
Experimental: SEC, 7.8×300 mm chromatographic column or equivalent column was selected. 0.05 mol/L Na2HPO4—NaH2PO4, 0.3 mol/L NaCl, pH 7.0 was used as the mobile phase. The flow rate of HPLC was set to be 0.5 ml/min, and the detection wavelength to 280 nm. Isocratic elution was performed for 35 min, and the injection volume was 10 μl. From the SEC results of the stability test at 2° C. to 8° C. in Table 3, it can be seen that the total peak area of the group with small molecules added on day 15 is larger and the main peak ratio thereof is higher.

[2] = Description: As the amount of xanthine added increases, the pH of the solution needs to be further increased to dissolve xanthine. However, high pH conditions will cause protein denaturation. […] The stability change trend of PEGylated urate oxidase tetramer was detected by the detection method of high and low molecular proteins of PEGylated urate oxidase.
The situation where the molar ratio of xanthine to PEGylated urate oxidase was higher than 26:1 was studied.

[3] = Stability of S1 and S2 urate oxidase with/without xanthine at 37° C.: SEC detection of high and low molecular proteins; format: physicochemical; conditions: for High molecular weight % / Low molecular weight % / Main peak %: storage 37° C. ± 2° C.
Experimental: SEC, 7.8×300 mm chromatographic column or equivalent column was selected. 0.05 mol/L Na2HPO4—NaH2PO4, 0.3 mol/L NaCl, pH 7.0 was used as the mobile phase. The flow rate of HPLC was set to be 0.5 ml/min, and the detection wavelength to 280 nm. Isocratic elution was performed for 35 min, and the injection volume was 10 μl.
(§1) In this example of the present disclosure, xanthine was added to the S1 and S2 samples at a molar ratio of 26 times (xanthine:urate oxidase). The samples were packaged and placed at 37° C. for stability evaluation at days 0, 1.5, 6, and 16. The evaluation indicators include the content of high and low molecular proteins and enzyme specific activity.

[4] = Effect of xanthine on the activity of PEGylated urate oxidase (UV 293 nm); format: biochemical; conditions: xanthine 0.075 to 1.2 μg/ml
Experimental: The method used for determining the activity of urate oxidase and PEGylated urate oxidase was as follows. […] Therefore, the UV spectrophotometer detection wavelength was 293 nm. The buffer solution was used as a blank control, and the absorption zero point was calibrated. In the quartz cuvette, 2.95 ml of substrate reaction solution was added followed by 50 μl of the test solution, mixed immediately, and the light absorption value at 293 nm was measured. According to C=A/εL (A being the absorbance value of a specific concentration of uric acid at 293 nm, εbeing the molar extinction coefficient of uric acid, L being the light path of the cuvette, and C being the molar concentration of uric acid), the degradation concentration of uric acid and then the enzyme activity were calculated. Definition of the activity of urate oxidase and PEGylated urate oxidase: at the optimal reaction temperature of 37° C. and the optimal reaction pH of 9.5, the amount of enzyme required to convert […] uric acid into allantoin per minute being defined as one activity unit (U). […] The PEGylated urate oxidase solution was mixed with different amounts of xanthine at a molar ratio of 0.05 mg/ml PEGylated urate oxidase to xanthine of 1:0, 1:3, 1:11, and 1:44, and then the activity of urate oxidase and polyethylene glycol-modified urate oxidase was determined according to the above-mentioned detection method.

[5] = Stability of S1 and S2 urate oxidase with/without xanthine at 37° C.: enzyme specific activity (uric acid absorbance at 293 nm); format: biochemical; conditions: storage 37° C. ± 2° C.
Experimental: (§2) The method used for determining the activity of urate oxidase and PEGylated urate oxidase was as follows. […] Therefore, the UV spectrophotometer detection wavelength was 293 nm. The buffer solution was used as a blank control, and the absorption zero point was calibrated. In the quartz cuvette, 2.95 ml of substrate reaction solution was added followed by 50 μl of the test solution, mixed immediately, and the light absorption value at 293 nm was measured. According to C=A/εL (A being the absorbance value of a specific concentration of uric acid at 293 nm, εbeing the molar extinction coefficient of uric acid, L being the light path of the cuvette, and C being the molar concentration of uric acid), the degradation concentration of uric acid and then the enzyme activity were calculated.
(§3) Definition of the activity of urate oxidase and PEGylated urate oxidase: at the optimal reaction temperature of 37° C. and the optimal reaction pH of 9.5, the amount of enzyme required to convert […] uric acid into allantoin per minute being defined as one activity unit (U).
as §1

[6] = Stability effect of xanthine on urate oxidase from Micrococcus at 2° C. to 8° C.: enzyme activity; format: biochemical; conditions: storage 2° C. to 8° C., 15 d
Experimental: as §2, §3

[7] = immediate detection after process preparation

Molecule | Enzyme specific activity U/mg ([5]; 0 d) [U/mg] | Enzyme specific activity U/mg ([5]; 1.5 d) [U/mg] | Enzyme specific activity U/mg ([5]; 6 d) [U/mg] | Enzyme specific activity U/mg ([5]; 16 d) [U/mg] | High molecular weight % ([3]; 0 d) [%] | Low molecular weight % ([3]; 0 d) [%] | Main peak % ([3]; 0 d) [%] | High molecular weight % ([3]; 1.5 d) [%] | Low molecular weight % ([3]; 1.5 d) [%] | Main peak % ([3]; 1.5 d) [%] | High molecular weight % ([3]; 6 d) [%] | Low molecular weight % ([3]; 6 d) [%] | Main peak % ([3]; 6 d) [%] | High molecular weight % ([3]; 16 d) [%] | Low molecular weight % ([3]; 16 d) [%] | Main peak % ([3]; 16 d) [%] | further results
O=c1[nH]c(=O)c2[nH]cnc2[nH]1 [xanthine] | – | – | – | – | – | – | – | – | – | – | – | – | – | – | – | – | effect of xanthine on the stability of the enzyme derived from Micrococcus ([1]; 26 times xanthine, 2° C. to 8° C., day 15, text): improve the stability of the enzyme derived from Micrococcus to a certain extent; solubility of xanthine [2]: good solubility; effect of xanthine on the product stability of commercially available products and PHC ([3]; 26 times molar ratio, 37° C.): significantly improve the product stability; effect of the addition of xanthine on the activity of PEGylated urate oxidase [4]: no effect
B1 | 11.3 | 5.2 | 3.2 | 1.2 | 0.7 | 0.3 | 99 | 54.5 | 0.2 | 45.3 | 75.1 | 0.5 | 24.4 | 85.1 | 5 | 9.9 | –
B2 | – | – | – | – | – | – | – | – | – | – | – | – | – | – | – | – | High molecular weight % [1, 7]: 40.01%; Low molecular weight % [1, 7]: 2.34%; Main peak area [1, 7]: 3,986; Main peak ratio % [1, 7]: 57.65%; Total peak area [1, 7]: 6914.90; High molecular weight % ([1]; storage 2° C. to 8° C., 15 d): 74.58%; Low molecular weight % ([1]; storage 2° C. to 8° C., 15 d): 9.11%; Main peak area ([1]; storage 2° C. to 8° C., 15 d): 814; Main peak ratio % ([1]; storage 2° C. to 8° C., 15 d): 16.31%; Total peak area ([1]; storage 2° C. to 8° C., 15 d): 4993.05; Enzyme activity U/mg [6]: 3.58 U/mg
B3 | 15.3 | 12.6 | 8.5 | 3 | 0.3 | 1 | 98.8 | 0.2 | 5.6 | 94.2 | 7.3 | 17.7 | 75 | 17.2 | 51.7 | 31 | –
